Assay results as given in patent US20190338048A1.
pKd: −log10 of the molar value. Read-outs that look alike come from different tables or passages of the source. One block for each substance: values may come before it.

Columns and labels:
[1] = molecular target: Pertuzumab kappa light chain S176V (L2), N-terminal HA tag; test: LCCA, SPR of light chain tags
[2] = molecular target: Recombinant HER2 protein (HER2-ECD) (UniProt P04626); test: SPR, ProteOn XPR36
[3] = molecular target: Recombinant HER2 protein (HER2-ECD) (UniProt P04626); test: SPR as for KD
[4] = molecular target: Recombinant human IL-17A (human) (UniProt Q16552); test: SPR
[5] = molecular target: Recombinant human IL-17A (human) (UniProt Q16552); test: SPR as for KD
[6] = molecular target: Recombinant human IL-17A (human) (UniProt Q16552); test: SPR, ProteOn XPR36
[7] = molecular target: Recombinant HER2 protein (HER2-ECD) (UniProt P04626); test: SPR
[8] = molecular target: Pertuzumab kappa light chain Q124E_Q160E_T180E (L2), N-terminal HA tag; test: LCCA, SPR of light chain tags
[9] = molecular target: CAT-2200 lambda light chain S176K_Y178K (L1), N-terminal FLAG tag; test: LCCA, SPR of light chain tags
[10] = molecular target: CAT-2200 lambda light chain S176K_Y178L (L1), N-terminal FLAG tag; test: LCCA, SPR of light chain tags
[11] = molecular target: Pertuzumab kappa light chain Q124E_Q160E_T180E (L2), N-terminal HA tag; test: LCCA, SPR of light chain tags; remark: listed apart in the source
[12] = molecular target: Pertuzumab kappa light chain Q124E_Q160E_T180E (L2), N-terminal HA tag; test: LCCA, SPR of light chain tags; remark: listed apart in the source
[13] = molecular target: Pertuzumab kappa light chain V133D (L2), N-terminal HA tag; test: LCCA, SPR of light chain tags
[14] = molecular target: Pertuzumab kappa light chain V133D (L2), N-terminal HA tag; test: LCCA, SPR of light chain tags; remark: listed apart in the source

Substance: CAT-2200 Fab, H1 L124E_V190D / L1 V133I_L135K_Y178F
Change in KD of H1L1 Fab vs wild type, -(log(KD design)-log(KD wt)) [5]: -3.56 log units

Substance: Pertuzumab Fab, H2 L143K / L2 Q124E_V133D
pKd [2]: 8.13
Change in KD of H2L2 Fab vs wild type, -(log(KD design)-log(KD wt)) [3]: 0.04 log units

Substance: CAT-2200 Fab heterodimer, H1 V177I_S188K / L1 V133L_S176D_Y178E
pKd [6]: 9.66
Change in KD of H1L1 Fab vs wild type [4]: 0.08

Substance: CAT-2200 Fab heterodimer H1L1 of design 10652-10755 (H1 L143E_K145T, L1 E124R)
pKd [4]: 9.55

Substance: Pertuzumab Fab with H2 Q39E_L124R_Q179K and L2 Q38R_V133G_S176D_T180E
Change in KD of H2L2 Fab vs wild type [7]: 0.016
pKd [7]: 8.12

Substance: Pertuzumab Fab heterodimer, H2 L45P_L143E_K145T_Q179E / L2 P44F_Q124R_T178R
pKd [7]: 8.23

Substance: Pertuzumab Fab, H2 L45P_L143R / L2 P44F_Q124E_V133D
pKd [7]: 8.23

Substance: CAT-2200 Fab heterodimer H1L1 with H1 F174G and L1 T116F_S176F
Change in KD of H1L1 Fab vs wild type [4]: 0.08
pKd [4]: 9.64

Substance: CAT-2200 designed Fab heterodimer, H1 Q179K / L1 K129T_S180E
Change in KD of H1L1 Fab vs wild type, -(log(KD design)-log(KD wt)) [4]: -0.056
pKd [4]: 9.62

Substance: Pertuzumab Fab, H2 Q39E_L143R / L2 Q38R_Q124E_V133D
pKd [7]: 8.12

Substance: CAT-2200 Fab heterodimer H1L1 with H1 K145T_S188E and L1 Y178K
Change in KD of H1L1 Fab vs wild type [4]: -0.1
pKd [4]: 9.47

Substance: CAT-2200 Fab heterodimer H1L1 with H1 K145T_V177T_S188E and L1 Y178K
Change in KD of H1L1 Fab vs wild type, -(log(KD design)-log(KD wt)) [6]: 0.11
pKd [6]: 9.68

Substance: Pertuzumab Fab heavy chain S186I_S188W (H2), ABD2-His6 tagged
H2L2:H2L1 normalized median ratio [1]: 40%
H2L2:H2L1 normalized median scalar value ln(r1/f1) [1]: -0.39

Substance: Pertuzumab Fab, H2 L124R / L2 V133G_S176D
pKd [2]: 8.08
Change in KD of H2L2 Fab vs wild type, -(log(KD design)-log(KD wt)) [3]: -0.01 log units

Substance: CAT-2200 Fab, H1 L124E_V190D / L1 V133I_L135K
Change in KD of H1L1 Fab vs wild type, -(log(KD design)-log(KD wt)) [5]: -3.56 log units

Substance: CAT-2200 Fab heterodimer H1L1 with H1 L143D_K145T and L1 E124Q_T131K_V133S
Change in KD of H1L1 Fab vs wild type [4]: -0.08
pKd [4]: 9.48

Substance: CAT-2200 Fab, H1 K145T_S188E / L1 Y178K
Change in KD of H1L1 Fab vs wild type [4]: -0.22
pKd [4]: 9.47

Substance: CAT-2200 Fab heterodimer H1L1 without pairing substitutions (wild-type H1 and L1)
Change in KD of H1L1 Fab vs wild type, -(log(KD design)-log(KD wt)) [4]: 0

Substance: CAT-2200 designed Fab heterodimer, H1 L143D_K145T / L1 E124Q_T131K_V133S
Change in KD of H1L1 Fab vs wild type, -(log(KD design)-log(KD wt)) [4]: -0.19
pKd [4]: 9.48

Substance: Pertuzumab Fab heavy chain L143S_S186K_S188T (H2), ABD2-His6 tagged
H2L2:H2L1 normalized median ratio [13]: 63%
H2L2:H2L1 normalized median scalar value ln(r1/f1) [13]: 0.54
H2L2:H2L1 normalized median ratio [14]: 64%
H2L2:H2L1 normalized median scalar value ln(r1/f1) [14]: 0.58

Substance: CAT-2200 Fab heterodimer H1L1 with H1 L143E_K145T_Q179E and L1 E124Q_T131R
Change in KD of H1L1 Fab vs wild type, -(log(KD design)-log(KD wt)) [4]: -0.03
pKd [4]: 9.54

The next lines start with the values.

H2L2:H2L1 normalized median ratio [1]: 40%
H2L2:H2L1 normalized median scalar value ln(r1/f1) [1]: -0.39
Substance: Pertuzumab Fab heavy chain S186L_S188W (H2), ABD2-His6 tagged

pKd [2]: 8.07
Change in KD of H2L2 Fab vs wild type, -(log(KD design)-log(KD wt)) [3]: -0.02 log units
Substance: Pertuzumab Fab, H2 S188K / L2 S131D_V133G_T178F

Change in KD of H1L1 Fab vs wild type [4]: 0
pKd [4]: 9.57
Substance: CAT-2200 Fab heterodimer H1L1 with H1 K145T_V177D_S188D and L1 S176K_Y178K

Change in KD of H1L1 Fab vs wild type, -(log(KD design)-log(KD wt)) [5]: -3.56 log units
Substance: CAT-2200 Fab, H1 L124E_V190D / L1 L135K_Y178F

Change in KD of H1L1 Fab vs wild type [4]: 0.1
pKd [4]: 9.66
Substance: CAT-2200 Fab heterodimer H1L1 with H1 L143D_K145T and L1 E124Q_T131K

pKd [6]: 9.64
Change in KD of H1L1 Fab vs wild type [4]: 0.08
Substance: CAT-2200 Fab heterodimer, H1 V177I_S188K / L1 V133I_S176D_Y178E

Change in KD of H1L1 Fab vs wild type [4]: -0.22
pKd [4]: 9.46
Substance: CAT-2200 Fab, H1 L143D_K145T / L1 E124Q_T131R

Change in KD of H1L1 Fab vs wild type [4]: -0.1
pKd [4]: 9.46
Substance: CAT-2200 Fab heterodimer H1L1 with H1 L143D_K145T and L1 E124Q_T131R

Change in KD of H1L1 Fab vs wild type, -(log(KD design)-log(KD wt)) [4]: -0.22
pKd [4]: 9.47
Substance: CAT-2200 designed Fab heterodimer, H1 K145T_S188E / L1 Y178K

pKd [4]: 9.57
Substance: CAT-2200 Fab heterodimer (H1L1) with H1 K145T_V177D_S188D and L1 S176K_Y178R

Change in KD of H1L1 Fab vs wild type [4]: -0.0041
pKd [4]: 9.68
Substance: CAT-2200 designed Fab, H1 A125R_S186R / L1 S122D_K129T_S180E

Change in KD of H1L1 Fab vs wild type, -(log(KD design)-log(KD wt)) [4]: 0.03
pKd [4]: 9.59
Substance: CAT-2200 Fab heterodimer H1L1 with H1 S186R and L1 K129T_S180E

Change in KD of H1L1 Fab vs wild type [4]: 0.03
pKd [4]: 9.59
Substance: CAT-2200 Fab heterodimer H1 L143K / L1 K129T_V133D

Change in KD of H2L2 Fab vs wild type [7]: 0.065
pKd [7]: 8.17
Substance: Pertuzumab Fab with H2 L45P_L124R_Q179K and L2 P44F_V133G_S176D_T180E

Change in KD of H1L1 Fab vs wild type, -(log(KD design)-log(KD wt)) [4]: -0.0041 log(KD)
pKd [4]: 9.68
Substance: CAT-2200 Fab, H1 A125R_S186R / L1 S122D_K129T_S180E

pKd [4]: 9.57
Substance: CAT-2200 Fab heterodimer (H1L1) with H1 K145T_V177D_S188D and L1 S176K_Y178K

Change in KD of H1L1 Fab vs wild type, -(log(KD design)-log(KD wt)) [6]: 0.01
pKd [6]: 9.57
Substance: CAT-2200 Fab heterodimer H1L1 with H1 K145T_V177D_S188D and L1 S176K_Y178R

Change in KD of H1L1 Fab vs wild type, -(log(KD design)-log(KD wt)) [4]: -0.088
pKd [4]: 9.59
Substance: CAT-2200 Fab heterodimer, H1 S186R / L1 K129T_S180E

Change in KD of H1L1 Fab vs wild type, -(log(KD design)-log(KD wt)) [4]: 0
Substance: CAT-2200 Fab heterodimer H1L1 without pairing substitutions (H1L1 of Mab design sets 10771-11335 and 10771-11360)

pKd [6]: 9.68
Change in KD of H1L1 Fab vs wild type, -(log(KD design)-log(KD wt)) [5]: 0.11 log units
Substance: CAT-2200 Fab, H1 K145T_V177T_S188E / L1 Y178K

H2L2:H2L1 normalized median ratio [8]: 97%
H2L2:H2L1 normalized median scalar value ln(r1/f1) [8]: 3.46
H2L2:H2L1 normalized median ratio [9]: 4%
H2L2:H2L1 normalized median ratio [10]: 11%
H2L2:H2L1 normalized median ratio [11]: 96%
H2L2:H2L1 normalized median scalar value ln(r1/f1) [11]: 3.29
H2L2:H2L1 normalized median ratio [12]: 89%
H2L2:H2L1 normalized median scalar value ln(r1/f1) [12]: 2.07
Substance: Pertuzumab Fab heavy chain S186R (H2), ABD2-His6 tagged

pKd [4]: 9.66
Substance: CAT-2200 Fab heterodimer H1L1 with H1 V177I_S188K and L1 V133L_S176D_Y178E (Kabat)

pKd [2]: 8.09
Change in KD of H2L2 Fab vs wild type, -(log(KD design)-log(KD wt)) [3]: 0 log units
Substance: Pertuzumab Fab, H2 S188K / L2 S176E_T178E

Change in KD of H1L1 Fab vs wild type, -(log(KD design)-log(KD wt)) [4]: -0.088
pKd [4]: 9.59
Substance: CAT-2200 designed Fab heterodimer, H1 S186R / L1 K129T_S180E

Change in KD of H2L2 Fab vs wild type, -(log(KD design)-log(KD wt)) [7]: 0.023
pKd [7]: 8.13
Substance: Pertuzumab Fab heterodimer, H2 Q39E_L143E_K145T_Q179E / L2 Q38R_Q124R_T178R

Change in KD of H1L1 Fab vs wild type, -(log(KD design)-log(KD wt)) [4]: -0.24
pKd [4]: 9.44
Substance: CAT-2200 Fab heterodimer, H1 S188K / L1 S176E_Y178E

Change in KD of H1L1 Fab vs wild type, -(log(KD design)-log(KD wt)) [4]: 0.03
pKd [4]: 9.59
Substance: CAT-2200 Fab heterodimer (H1L1) with H1 L143K and L1 K129T_V133D

pKd [2]: 8.10
Change in KD of H2L2 Fab vs wild type, -(log(KD design)-log(KD wt)) [3]: 0 log units
Substance: Pertuzumab Fab, H2 S186K / L2 V133D

Change in KD of H1L1 Fab vs wild type [4]: -0.03
pKd [4]: 9.54
Substance: CAT-2200 Fab heterodimer H1 L143E_K145T_Q179E / L1 E124Q_T131R

pKd [6]: 9.66
Change in KD of H1L1 Fab vs wild type, -(log(KD design)-log(KD wt)) [5]: 0.1 log units
Substance: CAT-2200 Fab, H1 L143D_K145T / L1 E124Q_T131K

Change in KD of H1L1 Fab vs wild type [4]: -0.22
pKd [4]: 9.47
Substance: CAT-2200 Fab with H1 K145T_S188E and L1 Y178K
